Source: patent publication US7422883B2, “Map kinase integrin-binding domain” (Inter-K Pty Limited, priority 2000, dated 2008)
No end group written: not given here.

How the values were obtained:
ERK2 = biological target: T1, ERK2 (Mus musculus, UniProt P63085); assay: ELISA of ERK2 binding to biotinylated integrin cytoplasmic domain peptides
T1 construct: GST (glutathione-S-transferase); made in house
Protocol: Peptide fragments corresponding to regions of the cytoplasmic tail domain of the β6 subunit were screened in an enzyme-linked immunosorbent assay (ELISA) for binding with ERK2. The 52 amino acid long β6 cytoplasmic tail is shown in FIG. 16 as are the amino acid sequences for the cytoplasmic domains of the β1 to β3 subunits. In particular, four synthetic peptides designated fragment 1 to fragment 4 were prepared and biotinylated at the N-terminal end of each, respectively (Auspep Pty Ltd, Melbourne Australia).
(§1) Overlapping biotinylated fragments 1 to 4 were coated onto streptavidin coated polystyrene plates (Pierce, Rockford Ill. USA, Cat No. 15125) and the ELISA performed substantially according to manufacturers instructions. Briefly, wells are washed with 3×200 μl of wash buffer (TBS, 0.1% BSA, 0.05% Tween 20 or SuperBlock™ blocking buffer in TBS, Pierce, Prod. No. 37535) prior to addition of biotinylated peptides (100 μl) and incubation for 1 hr at room temperature to allow for capture of the peptides on the plate. Following another washing step, peptides were overlayed with GST-ERK, ERK (or JNK-1) alone at a volume of 100 μl per well, and the plates incubated for a further 1 hr at room temperature before removal of any unbound ERK by further washing.
Binding of ERK to the peptides is detected using 100 μl anti-ERK1/2 mAb SC1647 (Santa Cruz) as the primary antibody at a dilution of 1:700 (isotype matched antibody IgG2b is used as a control). This is followed by another washing step and addition of 100 μl rabbit anti-mouse antibody (Biorad) conjugated to alkaline phosphatase at a concentration of 1:1000 for 30 minutes again at room temperature. A […] of detection reagent (alkaline phosphatase detection kit-Biorad) is then introduced into each well after a final washing step and allowed to react for 15-30 minutes at room temperature in the dark before absorbance is measured at 405 nm. All dilutions of peptides, MAP kinase and antibodies were performed using the wash buffer. GST-ERK is a fusion protein consisting of ERK coupled to glutathione-S-transferase and purified from host cells transfected with pGEX vector.
To further localise the binding domain on the cytoplasmic tail of the β6 subunit, progressively shorter peptides from the region of the β6 cytoplasmic tail corresponding to peptide fragment 2 were synthesised, biotinylated and the capacity to associate or otherwise bind to ERK2 assessed as described above. The binding of GST.ERK2 to a 15 mer test peptide (seq. 4) having the amino acid sequence RSKAKWQTGTNPLYR (SEQ ID NO: 7) and a 10 mer test peptide having the sequence RSKAKWQTGT (SEQ ID NO: 21) is shown in FIG. 20 compared to fragment 2 over a range of concentrations of the peptides. […] 4 peptide compared to fragment 2 was found. Binding of ERK2 to the seq. 3 peptide was substantially less than that observed for seq. 4.
Binding of ERK2 to the seq.4 peptide (RSKAKWQTGTNPLYR) (SEQ ID NO: 7) was compared with peptides corresponding to regions of the cytoplasmic domain of integrin subunits β1, β2, β3 and β5. The amino acid sequences for those peptides is shown below:
To evaluate this, cell lysates containing equal protein loads were prepared from SW480 wild-type cells and SW480 cells transfected with either vector alone (mock transfectants), wild type β6 or the β6 deletion mutant Δ746-764 (lacking the sequence EAERSKAKWQTGTNPLYRG (SEQ ID NO: 26), Cone et al, 1994). The lysates were immunoprecipitated with mAbs R6G9 (anti-β6), P1F6 (anti-β5) or murine IgG control antibody (mlgG). […] To determine whether β5 can bind ERK2 in vitro, a 15-mer peptide fragment derived from the β5 cytoplasmic domain corresponding to the ERK binding domain on β6 was tested for its ability to bind ERK2 in an ELISA.

HT29 colon cancer cells = assay: WST-1 growth inhibition study, HT29; format: cell-based, human; details: HT29, 10 μm, 24 hours, serum-free; FIG. 28
Protocol: (§2) HT29 and SW480 β6-expressing colon cancer cell lines were seeded into wells of 96-well microtitre plates (Nunclon) in Dulbecco's Modified Eagle's Medium (DMEM) supplemented with 10% foetal bovine serum, glutamine, Hepes, and antibiotics. […] The cell proliferation reagent WST-1 is designed to be used for the non-radioactive, spectrophotometric quantification of cell growth and viability in proliferation and chemosensitivity assays. […]
(§3) Specifically, at the termination of experiments, 30 μl of WST-1 was added to 270 μl culture medium volume in each microtitre well and the colour change quantitated in an ELISA plate reader by measuring absorbance of the formazan product at […] (using a reference wavelength of more than 600 nm). The mean absorbance readings from triplicate wells (±standard error of the means) after subtraction of background control wells (culture medium without cells) was determined.

SW480 β6 transfectants = assay: WST-1 growth inhibition, SW480 β6-expressing cells; format: cell-based, human; details: 30 μm, 24 hours, serum-free, FIG. 29
Protocol: as §2, §3
[…] Percentage inhibition was assessed by the WST-1 colorimetric dehydrogenase assay described in Example 6. […]

SW480 cells = assay: In vitro wound assay (cell migration); format: cell-based, human; details: SW480 lacking αvβ6, 1.25-10 μM, 48 hours, 1% foetal calf serum; FIG. 40
Protocol: The wound assay was performed by seeding 2×10^5 cells into 24 well (1.6 cm diameter) tissue culture plates in Dulbecco's modified Eagles medium (DMEM) supplemented by 10% foetal calf serum, HEPES, glutamine and antibiotics. The confluent cell monolayers were streaked with the tip of a plastic pipette in a cross-wire fashion, and loose non-adherent cells washed off gently with medium before replacing the culture medium with DMEM supplemented with 1% foetal calf serum. In addition, RSKAKWQTGTNPLYR (SEQ ID NO: 7) peptide ligated to penetratin (carrier peptide) by means of cysteine Cys (Npys) bonding was added to each well at a final concentration in the range of 1.25-10 μM. Cell migration across the wounded (streaked) area was photographed (Techpan, Kodachrome, ASA100) after a further 48 hours in culture. […] The conditions utilised in the assay were as follows: A: no peptide-penetratin complex added, B: 2.5 μM peptide-penetratin complex added, C: 5 μM peptide-penetratin complex added, D: 10 μM peptide-penetratin complex added.

JNK-1 = biological target: T2, JNK-1 (Homo sapiens, UniProt P45983); assay: ELISA of JNK-1 binding to β6 cytoplasmic tail peptide; details: JNK-1 0.05-1.5 μm/100 μl; FIG. 24
T2 construct: purchased Santa Cruz
Protocol: as §1
Briefly, 0.05-1.5 μm/100 μl of JNK-1 (Santa Cruz) was aliquoted into wells of a 96 well culture place containing increasing concentrations of the β6 cytoplasmic domain tail peptide used in Example 3. For comparison purposes, non-phosphorylated GST-ERK2 (0.05-1.5 μm/100 μl) was aliquoted into wells containing β6 cytoplasmic tail peptide or peptide fragments 1 or 2, respectively. Binding of JNK-1 was detected using mouse anti-JNK-1 mAb SC 474-G (Santa Cruz) and HRP-conjugated goat anti-mouse antibody.

β6-ERK2 interaction = assay: ERK2 peptide competition ELISA for β6-ERK2 binding; details: increasing concentrations incubated with ERK2
Protocol: To determine the β6-binding domain(s) of ERK2, a biotinylated β6 cytoplasmic tail peptide spanning the cytoplasmic tail of β6 was incubated with a soluble ERK2 peptide fragment in a total incubation volume of 20 μl phosphate buffered saline (PBS). The mixture was stood for 45 minutes at room temperature (RT). Soluble ERK2 in PBS was then added and the solution left for a further 30 minutes. Following incubation the reaction volume was made to 400 μl with carbonate buffer (0.015 M Na2CO3 and 0.035M NaHCO3 at pH 9.6) and 100 μl of this mixture added to each of 4 wells of a polystyrene ELISA plate (Nunc, Maxicorp). ERK2/peptides were allowed to attach to the plastic substrate for 18 to 20 hours at RT in the dark. After immobilisation the overlying buffer was flicked from the wells and excess solid surface blocked with casein (0.5% skim milk) in PBS for 60 minutes at RT. Wells were washed (×3) with was buffer (PBS plus 0.5% skim milk powder, 0.05% Tween-20) prior to incubation with the anti-β6 antibody SC-6632 (Santa Cruz) diluted 1:500 v/v in wash buffer (2 wells) or a control antibody (2 wells). Incubation with the primary antibody was carried out for 30 minutes at RT. […] Specific binding events were quantitatively determined using a colourimetric substrate system by measuring absorbency at […] (Bio-Rad, AP substrate kit). […]

T1 sequence (P63085 whole entry, the tested form may be a part): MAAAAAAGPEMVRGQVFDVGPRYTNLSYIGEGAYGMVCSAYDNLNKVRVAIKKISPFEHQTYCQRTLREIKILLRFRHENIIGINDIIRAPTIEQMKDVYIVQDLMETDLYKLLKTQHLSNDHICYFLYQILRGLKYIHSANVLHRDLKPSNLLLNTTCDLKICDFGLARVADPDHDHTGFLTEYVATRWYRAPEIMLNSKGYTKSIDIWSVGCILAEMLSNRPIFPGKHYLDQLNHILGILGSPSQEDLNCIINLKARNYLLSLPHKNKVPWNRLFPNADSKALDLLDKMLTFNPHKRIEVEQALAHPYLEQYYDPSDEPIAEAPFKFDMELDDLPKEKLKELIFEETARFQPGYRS
T2 sequence (P45983 whole entry, species assumed): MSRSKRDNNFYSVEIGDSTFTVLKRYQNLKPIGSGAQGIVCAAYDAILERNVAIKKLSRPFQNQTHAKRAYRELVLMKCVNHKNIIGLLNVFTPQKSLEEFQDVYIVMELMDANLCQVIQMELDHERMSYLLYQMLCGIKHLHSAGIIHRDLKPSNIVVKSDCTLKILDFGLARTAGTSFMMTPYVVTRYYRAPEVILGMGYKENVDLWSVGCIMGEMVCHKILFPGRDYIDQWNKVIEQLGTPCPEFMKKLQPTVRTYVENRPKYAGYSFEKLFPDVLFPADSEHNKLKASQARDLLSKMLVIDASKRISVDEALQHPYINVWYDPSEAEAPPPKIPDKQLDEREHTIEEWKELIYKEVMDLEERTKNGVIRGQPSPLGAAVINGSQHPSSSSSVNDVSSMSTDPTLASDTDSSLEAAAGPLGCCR

Substance | binding of ERK2 to integrin subunit peptides (ERK2; corrected for non-specific binding, FIG. 34) | binding of GST.ERK2 to peptide (ERK2; over a range of concentrations of the peptides, compared to fragment 2, FIG. 20) | inhibition of cell proliferation (WST-1) (HT29 colon cancer cells) | inhibition of cell proliferation (WST-1) (SW480 β6 transfectants) | cell migration across wounded area (wound repair) (SW480 cells) | binding of JNK-1 to peptide (JNK-1) | binding of non-phosphorylated ERK2 to peptide (ERK2; over a range of concentrations of ERK2, FIG. 18) | concentration at which maximal β6 bound to ERK was detected (β6-ERK2 interaction) [µM]
RSKAKWQTGTNPLYR (also: biotinylated, site not given here) [seq. 4, 15 mer fragment of the β6 cytoplasmic domain] | significant binding | no reduction in binding | Only the carrier penetratin-peptide complex was effective in inhibiting cell proliferation in contrast to either peptide or penetratin alone | Only the carrier penetratin-peptide complex was effective in inhibiting cell proliferation in contrast to either peptide or penetratin alone | not stimulated | – | – | –
β6 cytoplasmic tail peptide: peptide spanning the 52 amino acid long β6 cytoplasmic tail (HDRKEVAKFEAERSKAKWQTGTNPLYRGSTSTFKNVTYKHREKQKVDLSTDS) | – | – | – | – | – | Significant binding | Significant binding | 0.25
